Experiment: yeast display, Sf9 membrane polyspecificity reagent, FACS + sequencing; frameworks hold sequencing errors
Method in brief: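 Galactose induction of a Saccharomyces cerevisiae BJ5465 synthetic nanobody display library ran 36–48 hours. The cells were then stained for 1 hour at 4 °C with 10% biotinylated, detergent-solubilized Sf9 membrane reagent, pulled down on streptavidin microbeads and FACS-sorted into low and high (top ~1%) gates on expression and reagent-binding fluorescence. Labels for polyreactivity follow the gate of origin.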

QVQLVESGGGLVQAGGSLRLSCAATGMIYERNAMGWYRQAPGKERELVAAITRSGSRTYYADSVKGRFTISRDNAKNTVYLQMNSLKPEDTAVYYCAKRSGYRAHYGYWGQGTQVTVSS
polyreactivity (PSR sort gate): high polyreactivity

QVQLVESGGGLVQAGGSLRLSCAATGNIFTPYTMGWYRQAPGKERELVASINNAGTTKYADSVKGRFTISRDNAKTTVYLQMNSLKPEDTAVYYCAAQRRHALSSYPKHYYWGQGTQVTVSS
polyreactivity (PSR sort gate): low polyreactivity

QVQLVESGGGLVQAGGSLRLSCAATGRIFHRYAMGWYRQAPGKEREFVAAITYSTGTTYYADSVKGRFTISRDNAKNTVYLQMNSLKPEDTAVYYCAKVSRFWHKSWFAYGYDYWGQGTQVTVSS
polyreactivity (PSR sort gate): low polyreactivity

QVQLVESGGGLVQAGGSLRLSCAATGRIFHSNAMGWYRQAPGKERELVAVITKNGGSTYYADSVKGRFTISRDNAKNTVYLQMNSLKPEDTAVYYCNKRAQYTYYGRDYWGQGTQVTVSS
polyreactivity (PSR sort gate): high polyreactivity

QVQLVESGGGLVQAGGSLRLSCAATGRIFNPNAMGWYRQAPGKERELVAAITSGDSTNYADSVKGRFTISRDNAKNTVYLQMNSLKPEDTAVYYCAAGPSYRPPWLRQGGYDYWGQGTQVTVSS
polyreactivity (PSR sort gate): low polyreactivity

QVQLVESGGGLVQAGGSLRLSCAATGRIFTYMGWYRQAPGKERELVAGISWRGTSTYYADSVKGRFTISRDNAKNTVYLQMNSLKPEDTAVYYCAARWAYHVRGDYWGQGTQVTVSS
polyreactivity (PSR sort gate): low polyreactivity

QVQLVESGGGLVQAGGSLRLSCAATGRIVRGNAMGWYRQAPGKERELVAAISTRGGRTYYADSVKGRFTISRDNAKNTVYLQMTSLKPQDTAVYYCNKGDSASSLDYWGQGTQVTVSS
polyreactivity (PSR sort gate): high polyreactivity

QVQLVESGGGLVQAGGSLRLSCAATGRNFRYNAIGWYRQATGKERELVATISRGGGSTYYADSVKGRFTISRDNAQNTVYLQMNSLKPEDTAVYYCATRYYQDIVGYSRYDYWGQGTQVTVSS
polyreactivity (PSR sort gate): high polyreactivity

QVQLVESGGGLVQAGGSLRLSCAATGRTFAVYAMGWYRQAPGKERELVAAISSGGSTYYADSVKGRFTIARDNAKNTVYLQMNSLKPEDTAVYYCTARWGYRRGYWGQGTQVTVSS
polyreactivity (PSR sort gate): high polyreactivity

QVQLVESGGGLVQAGGSLRLSCAATGRTFGVNAMAWYRQAPGKESELVASIRWNGGSTYYADSVKGRFTISRDNAKNTVYLQMNSLKPEDTAVYYCNAVRRYRSREFDYWGQGSQVTVSS
polyreactivity (PSR sort gate): low polyreactivity

QVQLVESGGGLVQAGGSLRLSCAATGRTFINYAMGWYRQAPGKERALVAAITTGGRTNYADSVKGRFTISRDNAKNTVYLQMNSLKPEDTAVFYCAADRYYWGRYTLNYWGQGTQVTVSS
polyreactivity (PSR sort gate): low polyreactivity

QVQLVESGGGLVQAGGSLRLSCAATGRTFSTNAMGGSRQAPGKERELVAAITSSGGRTYYADSVKGRFTISRDNAKNTVYLQMNSLKPEDTAVYYCAAYPWYYRGYWFGYWGQGTQVTVSS
polyreactivity (PSR sort gate): high polyreactivity

QVQLVESGGGLVQAGGSLRLSCAATGRTLKYNAMGRYRKAPGKERELVAAISYSGSSTYYADSVKGRFTISRDNAKNTVYLQMHSLKPEDTAVYYCNTARPTAAYDYWGQGTQVTVSS
polyreactivity (PSR sort gate): low polyreactivity

QVQLVESGGGLVQAGGSLRLSCAATGSIFAVYAMGWYRQAPGKERELVARITRGGGSTYYADSVKGRFTISRDNAKNTVYLQMNSLKPEDTAVYYCAAARWSQYRTWMNYWGQGTQVTVSS
polyreactivity (PSR sort gate): high polyreactivity

QVQLVESGGGLVQAGGSLRLSCAATGSIFEGYAMGWYRQAPGKERELVARITSDDDSTYYADSVKGRFTISRDNAKNSVYLQMNSLKPEDTAVYYCNADYYWTSLAMDSWGQGTQVTVSS
polyreactivity (PSR sort gate): low polyreactivity

QVQLVESGGGLVQAGGSLRLSCAATGSIFNIYTMGRYRQAPGKERELVAVITSSGGKYYADSLKGRFTISRDNAMNTVYLQMNSLKPEDTAVYFCAARRRPYSPHLGYWGQGTQVTVSS
polyreactivity (PSR sort gate): high polyreactivity

QVQLVESGGGLVQAGGSLRLSCAATGSIFPANVMGWYRQAPGKERELVASINSGDDTNYADSVKGRFTISRDNAKNTVYLQMNSLKPEDTAVYYCATGDWYPYGDYIYDYWGQGTQVTVSS
polyreactivity (PSR sort gate): low polyreactivity

Source: the nanobody polyreactivity screen of Harvey et al. (2022)
